We go through three proteins from paper PMC10857811 (Chem, 2024).

Usually stoichiometry N stands for the number of molecules, sites or subunits per partner or assembly.

The series deals with the molecule itself. The series is described as follows: cross-linking.

B1: Pseudomonas fluorescens esterase variant p2 (T3C) (enzyme)
chain: SCFVAKDGTQIYFKDWGSGKPVLFSHGWLLDADMWEYQMEYLSSRGYRTIAFDRRGFGRSDQPWTGNDYDTFADDIAQLIEHLDLKEVTLVGFSMGGGDVARYIARHGSARVAGLVLLGAVTPLFGQKPDYPQGVPLDVFARFKTELLKDRAQFISDFNAPFYGINKGQVVSQGVQTQTLQIALLASLKATVDCVTAFAETDFRPDMAKIDVPTLVIHGDGDQIVPFETTGKVAAELIKGAELKVYKDAPHGFAVTHAQQLNEDLLAFLKR
On to B1, for which the “stoichiometry N” value turned out to be 3.

B2: Pseudomonas fluorescens esterase variant p3 (Q174C) (enzyme)
chain: STFVAKDGTQIYFKDWGSGKPVLFSHGWLLDADMWEYQMEYLSSRGYRTIAFDRRGFGRSDQPWTGNDYDTFADDIAQLIEHLDLKEVTLVGFSMGGGDVARYIARHGSARVAGLVLLGAVTPLFGQKPDYPQGVPLDVFARFKTELLKDRAQFISDFNAPFYGINKGQVVSCGVQTQTLQIALLASLKATVDCVTAFAETDFRPDMAKIDVPTLVIHGDGDQIVPFETTGKVAAELIKGAELKVYKDAPHGFAVTHAQQLNEDLLAFLKR
B2: the “stoichiometry N” value was found to be 3.

B3: Pseudomonas fluorescens esterase variant p4 (T3C and Q174C) (enzyme)
chain: SCFVAKDGTQIYFKDWGSGKPVLFSHGWLLDADMWEYQMEYLSSRGYRTIAFDRRGFGRSDQPWTGNDYDTFADDIAQLIEHLDLKEVTLVGFSMGGGDVARYIARHGSARVAGLVLLGAVTPLFGQKPDYPQGVPLDVFARFKTELLKDRAQFISDFNAPFYGINKGQVVSCGVQTQTLQIALLASLKATVDCVTAFAETDFRPDMAKIDVPTLVIHGDGDQIVPFETTGKVAAELIKGAELKVYKDAPHGFAVTHAQQLNEDLLAFLKR
As to B3, the “stoichiometry N” value is 3.
